We go through 5 molecules from patent US20210269549A1, “ANTI-SAS1B ANTIBODIES, ASSOCIATED METHODS OF USE, AND COMPOSITIONS AND METHODS FOR DETECTING AND TREATING CANCER” (UNIVERSITY OF VIRGINIA PATENT FOUNDATION, priority 2015, published 2021).

Experiment [1] deals with MMMT539 (uterine cancer cell line). Nature of the experiment: Live cell surface indirect immunofluorescence, MMMT539. It is filed as cell-based, human. To be noted: live cells on ice. As for the experimental part:
Anti-Human SAS1B mouse monoclonal antibodies reactive to SAS1B epitope on live cancer cell surfaces were identified by indirect immuno-fluorescence (IF) for the development of therapeutic antibodies. M1 (renal cancer cell line) and MMMT539 (uterine cancer cell line) cells were seeded at 20,000 cells in 1 ml per well on collagen coated coverslips in 24 well plates. The media was replaced 22 h post seeding. For antibody probing, cells were kept on ice for ˜8 to 18 min following 47 h post-seeding. The first antibody was added at 10 ug/ml, 20 ug/ml or 50 ug/ml in complete culture media with 15 mM NaN3 (pre-chilled), incubated on ice for 60 min, and the cells washed in complete culture media with 15 mM NaN3 in cold 1 ml, ×3. The second antibody, goat-antimouse-AF488 (pre-chilled), was added to the wells at 5 ug/ml in complete culture media with 15 mM NaN3 for 60 min on ice. The cells were washed in complete media with 15 mM NaN3, 1 ml, ×3 on ice. The cells were fixed in 4% PFA in PBS for 20 minutes on ice. The cells were washed in distilled water at RT, 1 ml, ×1 and mounted in 8 ul of SLOWFADE® Diamond Antifade Mountant with DAPI. An anti-EGFR monoclonal antibody was used as a positive control on live M1 cells. Epidermal growth factor receptor (EGFR) is a transmembrane glycoprotein and member of protein kinase superfamily. […] Most of the cells expressed the receptor and validated the live cell surface IF staining methodology for the screening of anti-human SAS1B mouse monoclonal antibodies. The receptor molecule was found on the cell surfaces. Anti-human CABYR monoclonal antibody 3A4 was used as a negative control on live MMMT539 cells. CABYR is a calcium binding cytoskeleton sperm protein with no transmembrane domain.

Experiment [2] has as its system uterine cancer cell line (MMMT539). Put plainly: Morphology of uterine cancer cells after 93 h of anti-SAS1B antibody drug treatment. The format is cell-based, human. As to conditions: 0.1 nM mAb with 15 nM Fab-DMDM. As to the method:
The morphology of uterine cancer cell line (SNU539) and uterine cancer cell line (MMMT539) after 93 h of anti-SAS1B antibody drug treatment were examined.

Experiment [3] relates to renal cell carcinoma cell line (M1). Put plainly: Morphology of renal cell carcinoma cell line (M1) after 93 h of antibody drug treatment. The format is cell-based. As to conditions: 1 nM mAb with 15 nM Fab-DMDM. As for the experimental part:
The morphology of renal cell carcinoma cell line (M1) after 93 h of anti-EGFR antibody drug treatment was examined.

The target in experiment [4] is T1, recombinant human SAS1B antigen (Homo sapiens, UniProt Q6HA08).
T1 sequence (Q6HA08 24-431): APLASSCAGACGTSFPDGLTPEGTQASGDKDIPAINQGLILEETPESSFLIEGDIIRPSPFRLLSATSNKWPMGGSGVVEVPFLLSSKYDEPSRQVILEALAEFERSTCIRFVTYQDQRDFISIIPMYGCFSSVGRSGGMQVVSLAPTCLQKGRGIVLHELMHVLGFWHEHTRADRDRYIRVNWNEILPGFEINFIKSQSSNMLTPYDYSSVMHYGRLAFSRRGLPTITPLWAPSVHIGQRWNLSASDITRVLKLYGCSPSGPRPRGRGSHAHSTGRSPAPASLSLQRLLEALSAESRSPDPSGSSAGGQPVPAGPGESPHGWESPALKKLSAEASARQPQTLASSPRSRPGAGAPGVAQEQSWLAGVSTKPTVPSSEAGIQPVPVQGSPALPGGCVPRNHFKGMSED
Put plainly: Capture assay by sandwich ELISA. It is filed as binding. As to conditions: SB2 coupled to magnetic beads, SB5 coupled to HRP as detection agent, 96 well ELISA format. An excerpt: The antibodies were used to develop a capture assay by sandwich ELISA. The support was a magnetic bead (MB) coupled to SB2, SB3, SB4, or SB5 mAbs. The antigen was a recombinant human SAS1B antigen. Detection was accomplished with mAbs SB2, SB3, SB4, SB5 conjugated with HRP. A HRP substrate was used and TMB was used for quantitation.
The retention of HRP activity after conjugations to SASB1 SB2, SB3, SB4, SB5, and anti-CABYR monoclonal antibody 3A4 was examined. The assay method detected 0.2 femtomole of IgGs. Where SB2 is coupled to magnetic beads and SB5 coupled to HRP is used as a detection agent in a 96 well ELISA format 2.7 pmole/ml of rhSAS1B can be detected.

Experiment [5] has as its system MPanc96 cells (pancreatic ductal adenocarcinoma cell line). Nature of the experiment: Live indirect immunofluorescence cell surface staining, MPanc96. The format is cell-based, human. To be noted: for Cells staining for cell surface SAS1B: MPanc96, primary antibody 20 ug/mL; for Immunoreaction with cell surface localized SAS1B: live MPanc96, primary antibodies 20 ug/mL. As to the method: (§1) Live MPanc96 cells (pancreatic ductal adenocarcinoma cell line) were incubated with different anti-SAS1B monoclonal antibodies (as well as DAPI stain) for nucleus localization. Cells were fixed and permeabilized after primary and secondary antibody incubation thus fluorescence staining observed represents surface localized SAS1B. Monoclonal antibodies SB4 and SB5 were used, as well as normal rabbit or mouse IgG's as a negative control. All primary antibodies were used at a concentration of 20 ug/mL.
(§2) The live indirect immunofluorescence protocol is as follows. The cells were dissociated with Acutase and plated on fibronectin coated coverslips. MPanc96 cells were allowed to grow 2-3 days and 366 cells were allowed to grow for 3-4 days. The cells were blocked (blocking 1 solution) with 5% NGS in media for 30 min at RT and then blocked with 5% NGS in chilled media+0.1% sodium azide (blocking 2 solution) for 30 min on ice. The primary antibody (SB4, SB5 or control) was added at 20 ug/mL in blocking 2 solution for 2 hours on ice at 4° C. The cells were washed 3× for 5 minutes each on ice. The secondary antibody (goat anti-Ms/Rb Alexa488 (1:500)) was added in blocking 2 solution for 1 hour in dark on ice at 4° C. The cells were washed 3× for 5 min each on ice and then were fixed with 4% PFA-PBS for 15 min in the dark at RT. The cells were washed 2× for 5 min each at RT and then stained with DAPI stain (1:1000) for 10 min at RT. The cells were washed 2× for 5 min each at RT and then were treated with prolong gold antifade. […] About 10-20% of the SB5 treated cells stained for SASB1.

In experiment [6] the test system is PDAC cell line known as 366. Nature of the experiment: Live indirect immunofluorescence cell surface staining, 366. It is filed as cell-based, human. To be noted: for Cells staining for cell surface SAS1B: 366, primary antibody 20 ug/mL; for Recognition of cell surface SAS1B: live 366 cells, primary antibodies 20 ug/mL. As to the method:
as §1, §2

Substitutions are numbered along the chain they refer to.

B1: SB1: mouse anti-SAS1B monoclonal antibody, IgG2a; VH SEQ ID NO:12, VL SEQ ID NO:13 (antibody, listed as Mus musculus, V domains shown)
VH: EVQLQQSGPELVKPGSSVKISCKASGYTFTDYNMDWVKQSHGKSLEWIGAINPNNGGTSYNQKFKGKATLTVDKSSSTAYMELRSLTSEDSAVYYCATNEYWGQGTTLTVSS
VL: NIVMTQSPKSMSMSVGERVTLSCKASENVGTYVSWYQQKPEQSPKLLIYGASNRYTGVPDRFTGSGSATDFTLTISSVQAEDLADYHCGQSYSYPWTFGGGTKLEIK
As to B1, the “Fluorescence signal on the surface of live uterine tumor cells” value (from here on “Fluorescence signal on the surface”) in experiment [1] is reported as “clear fluorescence signal”.

B2: SB2: mouse anti-human SAS1B monoclonal antibody, IgG2b; VH SEQ ID NO:14, VL SEQ ID NO:15 (antibody, listed as Mus musculus, V domains shown)
VH: EVQLQQSGPELVKPGSSVKISCKASGYTFTDYNMVWVKQSHGKSLEWIGAVNPNNGGTSYNQKFKGKATLTVDKSSSTAYMELRSLTSEDSAVYYCVPNWDWFAYWGQGTLVTVSA
VL: DVLMTQTPLSLPVSLGDQASISCRSSQSLVHSNGNTYLEWYLQKPGQSPNLLIYKVSNRFSGVPDRFSGSGSGTDFTLKISRVEAEDLGVYYCFQGSHVPFTFGSGTKLEIK
With B2, the “Fluorescence signal on the surface” value in experiment [1] was “clear fluorescence signal”. For the same molecule, the “Cell killing and inhibition of cell proliferation (morphology)” value (“Cell killing and inhibition … (morphology)” for short) is “clear cell killing and inhibition of cell proliferation” in experiment [2]; “a large number of rounded dead cells” in experiment [3]. Also, the “rhSAS1B that can be detected” value in experiment [4] is 2.7 pmol/mL.

B3: SB4: mouse anti-human SAS1B monoclonal antibody, IgG2a; VH SEQ ID NO:16, VL SEQ ID NO:17 (antibody, listed as Mus musculus, V domains shown)
VH: B2 VH with A24P, V37M, V51I, S59T, V97A
VL: B2 VL with L29I, V30L, N50K
For the molecule B3, in experiment [5], the “Cells staining for cell surface SAS1B” value is given as 65-80% and the “Immunoreaction with cell surface localized SAS1B” value was “immunoreact with cell surface localized SAS1B”. Further, the “Fluorescence signal on the surface” value in experiment [1] is given as “clear fluorescence signal”. In addition, in experiment [6], the “Cells staining for cell surface SAS1B” value was 65-80% and the “Recognition of cell surface SAS1B” value was “recognize cell surface SAS1B in pancreatic cancer cell lines”.

B4: SB3: mouse anti-human SAS1B monoclonal antibody, IgG2b; VH SEQ ID NO:14, VL SEQ ID NO:15 (antibody, listed as Mus musculus, V domains shown)
VH: B2 VH
VL: B2 VL
B4: the “Fluorescence signal on the surface” value in experiment [1] is on record as “clear fluorescence signal”.

B5: SB5: mouse anti-human SAS1B monoclonal antibody, IgG2b; VH SEQ ID NO:16, VL SEQ ID NO:18 (antibody, listed as Mus musculus, V domains shown)
VH: B2 VH with A24P, V37M, V51I, S59T, V97A
VL: B2 VL with T7I, L29I, V30L, N50K
With B5, in experiment [5], the “Cells staining for cell surface SAS1B” value is 10-20% and the “Immunoreaction with cell surface localized SAS1B” value is “immunoreact with cell surface localized SAS1B”. In experiment [1], the “Fluorescence signal on the surface” value was “clear fluorescence signal”. Further, the “Cell killing and inhibition … (morphology)” value in experiment [2] was “clear cell killing and inhibition of cell proliferation”. Further, the “Cell killing and inhibition … (morphology)” value in experiment [3] was “clear cell killing and inhibition of cell proliferation properties”. Besides, in experiment [6], the “Cells staining for cell surface SAS1B” value is 10-20% and the “Recognition of cell surface SAS1B” value is on record as “recognize cell surface SAS1B in pancreatic cancer cell lines”. Further, the “rhSAS1B that can be detected” value in experiment [4] was determined as 2.7 pmol/mL.
